Substrate in data set [1]: C/C(=C\C(=O)O)CCOP(=O)(O)O
Description: coupled colorimetric assay (MVA5P kinase/pyruvate kinase/pyruvate oxidase/peroxidase, resorufin), Michaelis-Menten fit. The data set is classed as biochemical, Aeropyrum pernix. Conditions: reverse reaction (hydration of tAHMP to MVA5P), 70 mM Tris-HCl pH 7.0, 70 °C, anaerobic, reconstructed His-tagged enzyme. The source says: coupled colorimetric assay (MVA5P kinase/pyruvate kinase/pyruvate oxidase/peroxidase, resorufin), Michaelis-Menten fit on […]

The target of data set [2] is T1, Aeropyrum pernix phosphomevalonate dehydratase (ApPMDh) large subunit Ape_2087.1, polyhistidine-tagged (Aeropyrum pernix, UniProt Q9YA51 1-402).
T1 construct: large subunit Ape_2087.1 of phosphomevalonate dehydratase (type IIb aconitase X), Aeropyrum pernix; also called (His)6-Ape2087.1; large subunit of ApPMDh; source: E. coli Rosetta2 (DE3), pET-HisApPMDh, co-expressed with Ape_2089; heat-treated cell extract, Histrap FF; not shown: polyhistidine ((His)6), N-terminal, kept
T1 sequence (looked up): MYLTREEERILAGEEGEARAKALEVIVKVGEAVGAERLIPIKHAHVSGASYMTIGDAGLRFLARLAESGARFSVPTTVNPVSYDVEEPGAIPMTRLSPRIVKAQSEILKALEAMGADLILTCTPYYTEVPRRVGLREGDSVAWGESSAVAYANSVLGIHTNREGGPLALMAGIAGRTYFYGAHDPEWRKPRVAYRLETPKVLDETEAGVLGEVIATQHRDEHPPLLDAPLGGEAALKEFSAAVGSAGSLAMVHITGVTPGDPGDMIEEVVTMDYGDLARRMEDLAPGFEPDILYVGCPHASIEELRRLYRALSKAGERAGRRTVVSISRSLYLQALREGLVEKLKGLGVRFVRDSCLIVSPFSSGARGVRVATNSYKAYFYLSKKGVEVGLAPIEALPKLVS
Description: pull-down; polyhistidine-tagged large subunit co-expressed with untagged small subunit in E. coli; heat-treated (60°C, 30 min) cell extract on Histrap FF, anaerobic; 20 mM sodium phosphate pH 7.4, 500 mM NaCl, 20 mM imidazole; eluted with 150 mM imidazole; subunit ratio from 15% SDS-PAGE and ImageJ. Conditions: partners not purified.

For data set [3], the target named is T1, Aeropyrum pernix phosphomevalonate …. The experiment in a line: pull-down; as a1, but from a mixture of about equal amounts of cells co-expressing both subunits and cells expressing only untagged Ape_2089 (excess small subunit supplied); subunit ratio from SDS-PAGE and ImageJ. Conditions: partners not purified.

A word on the Km: it is the concentration of substrate that gives half-maximal velocity. One may read the kcat as the maximal rate divided by the concentration of active sites.

B1: ApPMDh (Aeropyrum pernix phosphomevalonate dehydratase) (Aeropyrum pernix K1) (protein)
chain 1: MYLTREEERILAGEEGEARAKALEVIVKVGEAVGAERLIPIKHAHVSGASYMTIGDAGLRFLARLAESGARFSVPTTVNPVSYDVEEPGAIPMTRLSPRIVKAQSEILKALEAMGADLILTCTPYYTEVPRRVGLREGDSVAWGESSAVAYANSVLGIHTNREGGPLALMAGIAGRTYFYGAHDPEWRKPRVAYRLETPKVLDETEAGVLGEVIATQHRDEHPPLLDAPLGGEAALKEFSAAVGSAGSLAMVHITGVTPGDPGDMIEEVVTMDYGDLARRMEDLAPGFEPDILYVGCPHASIEELRRLYRALSKAGERAGRRTVVSISRSLYLQALREGLVEKLKGLGVRFVRDSCLIVSPFSSGARGVRVATNSYKAYFYLSKKGVEVGLAPIEALPKLVS
chain 2: MEVLRYRSRPIVGGEAEGPAVVIDSLSFYGEVDPETGVTSGGKPLAGRVAAIRRSRGSTVGSYVIYALKENGVAPLAILMERAEPIVIAGCVLAGIPLYDGLPPEFFERVRDGYRVRVHSDGLVEVLGPGQP
notes: N-terminal His6 tag with HRV3C site on large subunit, small subunit untagged; co-expressed in E. coli Rosetta2(DE3); 1:1 heteromeric complex; tag kept for kinetics, cut for EPR and iron assay; Fe-S cluster reconstituted anaerobically
For B1, in data set [1], the Km was found to be 18.3 µM and the kcat was determined as 15.2 s⁻¹.

B2: Aeropyrum pernix phosphomevalonate dehydratase (ApPMDh) small subunit Ape_2089, untagged (natural protein, UniProt Q9YA49 1-132, looked up)
chain: MEVLRYRSRPIVGGEAEGPAVVIDSLSFYGEVDPETGVTSGGKPLAGRVAAIRRSRGSTVGSYVIYALKENGVAPLAILMERAEPIVIAGCVLAGIPLYDGLPPEFFERVRDGYRVRVHSDGLVEVLGPGQP
notes: small subunit Ape_2089 of phosphomevalonate dehydratase (type IIb aconitase X), Aeropyrum pernix; also called tag-free Ape_2089; small subunit of ApPMDh; source: E. coli Rosetta2 (DE3), co-expressed from pET-HisApPMDh (and expressed alone from pET-ApPMDh-S); heat-treated cell extract
As for B2, the “stoichiometry N” value in data set [2] is 1 small subunit per large subunit; in data set [3], ~1 small subunit per large subunit.

These data come from paper PMC10040528, “A [4Fe-4S] cluster resides at the active center of phosphomevalonate dehydratase, a key enzyme in the archaeal modified mevalonate pathway” (Frontiers in Microbiology, 2023).
